Assay results published in IntAct's records for PubMed 25910212.

B1: Three-prime repair exonuclease 1 (Homo sapiens), Q9NSU2-1 (parent)
chain: MGPGARRQGRIVQGRPEMCFCPPPTPLPPLRILTLGTHTPTPCSSPGSAAGTYPTMGSQALPPGPMQTLIFFDMEATGLPFSQPKVTELCLLAVHRCALESPPTSQGPPPTVPPPPRVVDKLSLCVAPGKACSPAASEITGLSTAVLAAHGRQCFDDNLANLLLAFLRRQPQPWCLVAHNGDRYDFPLLQAELAMLGLTSALDGAFCVDSITALKALERASSPSEHGPRKSYSLGSIYTRLYGQSPPDSHTAEGDVLALLSICQWRPQALLRWVDAHARPFGTIRPMYGVTASARTKPRPSAVTTTAHLATTRNTSPSLGESRGTKDLPPVKDPGALSREGLLAPLGLLAILTLAVATLYGLSLATPGE
partner: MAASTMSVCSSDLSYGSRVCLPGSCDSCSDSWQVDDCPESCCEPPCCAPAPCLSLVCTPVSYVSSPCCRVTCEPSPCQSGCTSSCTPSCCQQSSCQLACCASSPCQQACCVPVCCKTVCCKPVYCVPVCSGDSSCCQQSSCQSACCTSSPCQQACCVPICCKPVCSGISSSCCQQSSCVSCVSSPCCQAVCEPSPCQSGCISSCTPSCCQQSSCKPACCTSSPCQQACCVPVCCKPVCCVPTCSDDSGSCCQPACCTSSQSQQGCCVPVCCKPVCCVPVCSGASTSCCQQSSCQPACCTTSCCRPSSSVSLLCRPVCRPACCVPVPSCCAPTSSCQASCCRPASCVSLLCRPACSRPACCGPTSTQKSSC
B2: NADH dehydrogenase [ubiquinone] 1 alpha subcomplex assembly factor 4 (Homo sapiens), Q9P032 (parent)
chain: MGALVIRGIRNFNLENRAEREISKMKPSVAPRHPSTNSLLREQISLYPEVKGEIARKDEKLLSFLKDVYVDSKDPVSSLQVKAAETCQEPKEFRLPKDHHFDMINIKSIPKGKISIVEALTLLNNHKLFPETWTAEKIMQEYQLEQKDVNSLLKYFVTFEVEIFPPEDKKAIRSK
B3: Zinc finger protein 41 (Homo sapiens), P51814-6 (parent)
chain: MAANGDSPPWSPALAAEGRGSSCEASVSFEDVTVDFSKEEWQHLDPAQRRLYWDVTLENYSHLLSVGYQIPKSEAAFKLEQGEGPWMLEGEAPHQSCSGEAIGKMQQQGIPGGIFFHCERFDQPIGEDSLCSILEELWQDNDQLEQRQENQNNLLSHVKVLIKERGYEHKNIEKIIHVTTKLVPSIKRLHNCDTILKHTLNSHNHNRNSATKNLGKIFGNGNNFPHSPSSTKNENAKTGANSCEHDHYEKHLSHKQAPTHHQKIHPEEKLYVCTECVMGFTQKSHLFEHQRIHAGEKSRECDKSNKVFPQKPQVDVHPSVYTGEKPYLCTQCGKVFTLKSNLITHQKIHTGQKPYKCSECGKAFFQRSDLFRHLRIHTGEKPYECSECGKGFSQNSDLSIHQKTHTGEKHYECNECGKAFTRKSALRMHQRIHTGEKPYVCADCGKAFIQKSHFNTHQRIHTGEKPYECSDCGKSFTKKSQLHVHQRIHTGEKPYICTECGKVFTHRTNLTTHQKTHTGEKPYMCAECGKAFTDQSNLIKHQKTHTGEKPYKCNGCGKAFIWKSRLKIHQKSHIGERHYECKDCGKAFIQKSTLSVHQRIHTGEKPYVCPECGKAFIQKSHFIAHHRIHTGEKPYECSDCGKCFTKKSQLRVHQKIHTGEKPNICAECGKAFTDRSNLITHQKIHTREKPYECGDCGKTFTWKSRLNIHQKSHTGERHYECSKCGKAFIQKATLSMHQIIHTGKKPYACTECQKAFTDRSNLIKHQKMHSGEKRYKASD
B4: Emerin (Homo sapiens), P50402 (parent)
chain: MDNYADLSDTELTTLLRRYNIPHGPVVGSTRRLYEKKIFEYETQRRRLSPPSSSAASSYSFSDLNSTRGDADMYDLPKKEDALLYQSKGYNDDYYEESYFTTRTYGEPESAGPSRAVRQSVTSFPDADAFHHQVHDDDLLSSSEEECKDRERPMYGRDSAYQSITHYRPVSASRSSLDLSYYPTSSSTSFMSSSSSSSSWLTRRAIRPENRAPGAGLGQDRQVPLWGQLLLFLVFVIVLFFIYHFMQAEEGNPF
partner: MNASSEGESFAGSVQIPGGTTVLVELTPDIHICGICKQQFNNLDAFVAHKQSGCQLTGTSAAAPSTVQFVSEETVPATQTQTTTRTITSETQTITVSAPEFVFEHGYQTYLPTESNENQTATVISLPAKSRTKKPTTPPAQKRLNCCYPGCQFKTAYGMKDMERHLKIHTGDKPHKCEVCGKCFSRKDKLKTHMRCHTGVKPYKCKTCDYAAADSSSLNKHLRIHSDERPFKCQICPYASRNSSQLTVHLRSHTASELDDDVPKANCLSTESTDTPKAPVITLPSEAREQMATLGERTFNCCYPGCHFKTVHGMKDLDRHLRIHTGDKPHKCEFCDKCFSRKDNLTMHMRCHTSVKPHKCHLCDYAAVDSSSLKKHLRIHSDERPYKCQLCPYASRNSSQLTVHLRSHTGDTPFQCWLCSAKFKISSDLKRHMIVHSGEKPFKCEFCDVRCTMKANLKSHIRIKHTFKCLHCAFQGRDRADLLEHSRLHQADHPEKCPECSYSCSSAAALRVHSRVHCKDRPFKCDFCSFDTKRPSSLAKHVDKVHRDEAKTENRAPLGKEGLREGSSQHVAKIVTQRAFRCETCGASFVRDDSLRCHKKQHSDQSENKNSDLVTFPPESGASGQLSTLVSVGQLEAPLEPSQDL
B5: Keratin, type II cytoskeletal 6A (Homo sapiens), P02538 (parent)
chain: MASTSTTIRSHSSSRRGFSANSARLPGVSRSGFSSVSVSRSRGSGGLGGACGGAGFGSRSLYGLGGSKRISIGGGSCAISGGYGSRAGGSYGFGGAGSGFGFGGGAGIGFGLGGGAGLAGGFGGPGFPVCPPGGIQEVTVNQSLLTPLNLQIDPTIQRVRAEEREQIKTLNNKFASFIDKVRFLEQQNKVLETKWTLLQEQGTKTVRQNLEPLFEQYINNLRRQLDSIVGERGRLDSELRGMQDLVEDFKNKYEDEINKRTAAENEFVTLKKDVDAAYMNKVELQAKADTLTDEINFLRALYDAELSQMQTHISDTSVVLSMDNNRNLDLDSIIAEVKAQYEEIAQRSRAEAESWYQTKYEELQVTAGRHGDDLRNTKQEIAEINRMIQRLRSEIDHVKKQCANLQAAIADAEQRGEMALKDAKNKLEGLEDALQKAKQDLARLLKEYQELMNVKLALDVEIATYRKLLEGEECRLNGEGVGQVNISVVQSTVSSGYGGASGVGSGLGLGGGSSYSYGSGLGVGGGFSSSSGRAIGGGLSSVGGGSSTIKYTTTSSSSRKSYKH
partner: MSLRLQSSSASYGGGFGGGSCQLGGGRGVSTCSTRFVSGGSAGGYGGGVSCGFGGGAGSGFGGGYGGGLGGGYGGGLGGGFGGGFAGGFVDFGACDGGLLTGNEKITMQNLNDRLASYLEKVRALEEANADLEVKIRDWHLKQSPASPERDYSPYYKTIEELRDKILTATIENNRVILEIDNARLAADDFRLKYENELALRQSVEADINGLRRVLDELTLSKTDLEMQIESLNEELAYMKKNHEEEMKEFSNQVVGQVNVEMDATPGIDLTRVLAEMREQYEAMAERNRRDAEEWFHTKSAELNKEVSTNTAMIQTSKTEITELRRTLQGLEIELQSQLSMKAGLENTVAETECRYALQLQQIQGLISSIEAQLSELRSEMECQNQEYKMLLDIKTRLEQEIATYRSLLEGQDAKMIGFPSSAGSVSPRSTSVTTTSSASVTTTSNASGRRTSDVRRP
B6: Acetylcholine receptor subunit gamma (Homo sapiens), P07510-2 (parent)
chain: MHGGQGPLLLLLLLAVCLGAQGRNQEERLLADLMQNYDPNLRPAERDSDVVNVSLKLTLTNLISLNEREEALTTNVWIEMQWCDYRLRWDPRDYEGLWVLRVPSTMVWRPDIVLENKSQTYSTNEIDLQLSQEDGQTIEWIFIDPEAFTENGEWAIQHRPAKMLLDPAAPAQEAGHQKVVFYLLIQRKPLFYVINIIAPCVLISSVAILIHFLPAKAGGQKCTVAINVLLAQTVFLFLVAKKVPETSQAVPLISKYLTFLLVVTILIVVNAVVVLNVSLRSPHTHSMARGVRKVFLRLLPQLLRMHVRPLAPAAVQDTQSRLQNGSSGWSITTGEEVALCLPRSELLFQQWQRQGLVAAALEKLEKGPELGLSQFCGSLKQAAPAIQACVEACNLIACARHQQSHFDNGNEEWFLVGRVLDRVCFLAMLSLFICGTAGIFLMAHYNRVPALPFPGDPRPYLPSPD
partner: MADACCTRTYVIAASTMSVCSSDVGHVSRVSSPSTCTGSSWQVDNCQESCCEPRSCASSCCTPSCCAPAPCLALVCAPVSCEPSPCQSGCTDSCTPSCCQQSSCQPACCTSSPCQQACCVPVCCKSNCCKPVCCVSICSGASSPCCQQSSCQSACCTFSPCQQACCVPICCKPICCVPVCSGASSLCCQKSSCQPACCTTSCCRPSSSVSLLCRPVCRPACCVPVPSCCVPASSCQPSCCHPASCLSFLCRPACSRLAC

Variants of: B1
Conditions: with kr107_human KRTAP10-7, P60409

Variant | effect of a mutation on the interaction
G361A | with no effect
R169H | with no effect
A213V | with no effect

Variants of: B2
Conditions: with NDUFAF3, Q9BU61-2
Chain of NDUFAF3, Q9BU61-2 (Q9BU61 58-184): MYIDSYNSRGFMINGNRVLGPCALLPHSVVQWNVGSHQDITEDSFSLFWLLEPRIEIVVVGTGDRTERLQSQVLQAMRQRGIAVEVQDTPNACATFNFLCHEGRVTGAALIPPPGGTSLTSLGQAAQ

Variant | effect of a mutation on the interaction
L65P | with no effect

Variants of: B3
Conditions: with fam9b_human FAM9B

Variant | effect of a mutation on the interaction
I125R | with no effect
C301R | with no effect
P111L | disrupting interaction strength

Variants of: B4
Conditions: with zf64b_human ZFP64, Q9NTW7

Variant | effect of a mutation on the interaction
D72V | with no effect
S54F | with no effect

Variants of: B5
Conditions: with KRT13, P13646

Variant | effect of a mutation on the interaction
N21S | with no effect
N171K | with no effect

Now from value to variant:

effect of a mutation on the interaction | Variant
with no effect | F249L
with no effect | F174V
with no effect | T552S
with no effect | A463P
with no effect | I462S
with no effect | V523F

Variants of: B6
Conditions: with kr108_human KRTAP10-8, P60410

Variant | effect of a mutation on the interaction
V107G | disrupting interaction strength
R187C | disrupting interaction strength
R86C | disrupting interaction strength
